Each block holds one binder with its values, some of them ahead of it. Starred links: 1 amine or outer side, 2 acyl side, 3 side chain; linkers in the order of their positions; H or OH if unused. Non-standard residues stand in square brackets, D forms with d. Primed or numbered codes have the meaning given here. *: point of attachment. Pra′ = its azide, alkyne or alkene has reacted where a group follows in round brackets; Atz = 3-(1,2,3-triazol-4-yl)alanine, O=C([C@H](Cc1c[nH]nn1)N[*:1])[*:2]; Propanoyl(3-triazol-4-yl) = O=C(CCc1cn([*:1])nn1)[*:2]; dBip = N[C@H](Cc1ccc(-c2ccccc2)cc1)C(=O)O; Oic = O=C(O)[C@@H]1C[C@@H]2CCCC[C@@H]2N1; Phe(4-Cl) = N[C@@H](Cc1ccc(Cl)cc1)C(=O)O; Phe(4-I) = N[C@@H](Cc1ccc(I)cc1)C(=O)O; γGlu = O=C(O)[C@H](CCC(=O)[*:2])N[*:1]; NMeR = CN[C@@H](CCCNC(=N)N)C(=O)O; Tridecanoyl = CCCCCCCCCCCCC(=O)*; hArg = N=C(N)NCCCC[C@H](N)C(=O)O; Cha = N[C@@H](CC1CCCCC1)C(=O)O; NMeL = CN[C@@H](CC(C)C)C(=O)O; Nle = CCCC[C@H](N)C(=O)O; Orn = NCCC[C@H](N)C(=O)O; AEEA = NCCOCCOCC(=O)O
What was measured:
human APJ receptor = biological target: T1, human APJ receptor (human, UniProt P35414 1-380); assay: cell-based or functional assay
T1 sequence (looked up): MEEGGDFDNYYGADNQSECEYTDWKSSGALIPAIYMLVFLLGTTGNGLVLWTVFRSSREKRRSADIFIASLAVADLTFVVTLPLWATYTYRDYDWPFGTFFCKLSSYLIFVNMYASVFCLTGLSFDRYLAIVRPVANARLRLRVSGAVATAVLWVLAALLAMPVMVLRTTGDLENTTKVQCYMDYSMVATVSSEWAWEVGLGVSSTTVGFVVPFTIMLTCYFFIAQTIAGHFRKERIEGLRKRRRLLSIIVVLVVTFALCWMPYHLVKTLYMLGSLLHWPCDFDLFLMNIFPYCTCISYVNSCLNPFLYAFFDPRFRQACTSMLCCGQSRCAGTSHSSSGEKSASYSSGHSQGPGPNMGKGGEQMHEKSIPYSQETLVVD

rat APJ receptor = biological target: T2, rat APJ receptor (rat, UniProt Q9JHG3 1-377); assay: cell-based or functional assay
T2 sequence (looked up): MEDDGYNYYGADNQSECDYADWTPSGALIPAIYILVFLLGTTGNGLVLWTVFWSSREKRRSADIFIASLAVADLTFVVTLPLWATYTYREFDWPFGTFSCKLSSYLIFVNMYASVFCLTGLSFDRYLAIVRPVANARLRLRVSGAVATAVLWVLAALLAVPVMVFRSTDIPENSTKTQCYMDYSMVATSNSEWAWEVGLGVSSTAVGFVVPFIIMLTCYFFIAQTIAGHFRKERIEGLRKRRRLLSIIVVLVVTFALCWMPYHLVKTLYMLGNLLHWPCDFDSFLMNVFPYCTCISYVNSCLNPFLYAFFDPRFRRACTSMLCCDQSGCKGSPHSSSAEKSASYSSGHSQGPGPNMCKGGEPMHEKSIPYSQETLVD

Binder: Ac-[Atz](20K‑mPEG)KFRRQRP[hArg][Cha]SHKG[Oic][Nle]P[Phe(4-Cl)]-OH [apelin polypeptide SEQ ID NO: 105]
EC50 Human APJ Receptor (human APJ receptor): 0.187 nM | EC50 Rat APJ Receptor (rat APJ receptor): 0.285 nM

Binder: {20K‑mPEGReg-Propanoyl(3-triazol-4-yl)}-[hArg]RQ[hArg]PR[NMeL]SHKG[Oic][Phe(4-I)]P[dBip]-OH (also: 20 kDa PEG conjugate) [apelin polypeptide SEQ ID NO: 104]
EC50 Human APJ Receptor (human APJ receptor): 18.9 nM | EC50 Rat APJ Receptor (rat APJ receptor): 45 nM

Binder: Ac-[Atz](20K‑mPEG)LRP[hArg][Cha]SHKG[Oic][Nle]P[Phe(4-Cl)]-OH [apelin polypeptide SEQ ID NO: 106]
EC50 Human APJ Receptor (human APJ receptor): 3.22 nM | EC50 Rat APJ Receptor (rat APJ receptor): 47.3 nM

Continued, values first:

EC50 Human APJ Receptor (human APJ receptor): 10.5 nM | EC50 Rat APJ Receptor (rat APJ receptor): 10 nM
Binder: Ac-[Pra′](20K‑mPEGReg)[Orn]F[hArg][hArg]QRP[hArg][NMeL]SHKG[Oic][Phe(4-I)]P[dBip]-OH [apelin polypeptide SEQ ID NO: 107]

EC50 Human APJ Receptor (human APJ receptor): 11 nM | EC50 Rat APJ Receptor (rat APJ receptor): 56.2 nM
B1: apelin polypeptide SEQ ID NO: 126 (peptide)
peptide: Tridecanoyl-[γGlu][AEEA][AEEA][dQ][hArg]P[NMeR][Cha]SHKG[Oic][Nle]P[dF]-OH
SMILES: CCCCCCCCCCCCC(=O)N[C@@H](CCC(=O)NCCOCCOCC(=O)NCCOCCOCC(=O)N[C@H](CCC(N)=O)C(=O)N[C@@H](CCCCNC(=N)N)C(=O)N1CCC[C@H]1C(=O)N(C)[C@@H](CCCNC(=N)N)C(=O)N[C@@H](CC1CCCCC1)C(=O)N[C@@H](CO)C(=O)N[C@@H](Cc1c[nH]cn1)C(=O)N[C@@H](CCCCN)C(=O)NCC(=O)N1[C@H](C(=O)N[C@@H](CCCC)C(=O)N2CCC[C@H]2C(=O)N[C@H](Cc2ccccc2)C(=O)O)C[C@@H]2CCCC[C@@H]21)C(=O)O

EC50 Human APJ Receptor (human APJ receptor): 3.75 nM | EC50 Rat APJ Receptor (rat APJ receptor): 72 nM
B2: apelin polypeptide SEQ ID NO: 153 (peptide)
peptide: Tridecanoyl-[γGlu][AEEA][AEEA][dR]Q[hArg]P[dR][NMeL]SHKG[Oic][Phe(4-I)]P[Oic]-OH
SMILES: CCCCCCCCCCCCC(=O)N[C@@H](CCC(=O)NCCOCCOCC(=O)NCCOCCOCC(=O)N[C@H](CCCNC(=N)N)C(=O)N[C@@H](CCC(N)=O)C(=O)N[C@@H](CCCCNC(=N)N)C(=O)N1CCC[C@H]1C(=O)N[C@H](CCCNC(=N)N)C(=O)N(C)[C@@H](CC(C)C)C(=O)N[C@@H](CO)C(=O)N[C@@H](Cc1c[nH]cn1)C(=O)N[C@@H](CCCCN)C(=O)NCC(=O)N1[C@H](C(=O)N[C@@H](Cc2ccc(I)cc2)C(=O)N2CCC[C@H]2C(=O)N2[C@H](C(=O)O)C[C@@H]3CCCC[C@@H]32)C[C@@H]2CCCC[C@@H]21)C(=O)O

EC50 Human APJ Receptor (human APJ receptor): 3.19 nM | EC50 Rat APJ Receptor (rat APJ receptor): 9.99 nM
B3: apelin polypeptide SEQ ID NO: 149 (peptide)
peptide: Tridecanoyl-[γGlu][AEEA][AEEA][hArg][dQ][hArg]P[NMeR][Cha]SHKG[Oic][Nle]P[dF]-OH
SMILES: CCCCCCCCCCCCC(=O)N[C@@H](CCC(=O)NCCOCCOCC(=O)NCCOCCOCC(=O)N[C@@H](CCCCNC(=N)N)C(=O)N[C@H](CCC(N)=O)C(=O)N[C@@H](CCCCNC(=N)N)C(=O)N1CCC[C@H]1C(=O)N(C)[C@@H](CCCNC(=N)N)C(=O)N[C@@H](CC1CCCCC1)C(=O)N[C@@H](CO)C(=O)N[C@@H](Cc1c[nH]cn1)C(=O)N[C@@H](CCCCN)C(=O)NCC(=O)N1[C@H](C(=O)N[C@@H](CCCC)C(=O)N2CCC[C@H]2C(=O)N[C@H](Cc2ccccc2)C(=O)O)C[C@@H]2CCCC[C@@H]21)C(=O)O

— US10941182 (Amgen, dated 2021)
